The values below come from publication PMC8372230.

pKd: −log10 of the molar value.

In this experiment the target is extracellular domain (residues Q18 to S740) of human ACE2 fused with human IgG1 Fc (human) (UniProt Q9BYF1). Put plainly: BLI. Background: In BLI a coated tip is dipped into the sample, and binding shifts an interference pattern.
Chain of UniProt Q9BYF1 (Q9BYF1 18-740): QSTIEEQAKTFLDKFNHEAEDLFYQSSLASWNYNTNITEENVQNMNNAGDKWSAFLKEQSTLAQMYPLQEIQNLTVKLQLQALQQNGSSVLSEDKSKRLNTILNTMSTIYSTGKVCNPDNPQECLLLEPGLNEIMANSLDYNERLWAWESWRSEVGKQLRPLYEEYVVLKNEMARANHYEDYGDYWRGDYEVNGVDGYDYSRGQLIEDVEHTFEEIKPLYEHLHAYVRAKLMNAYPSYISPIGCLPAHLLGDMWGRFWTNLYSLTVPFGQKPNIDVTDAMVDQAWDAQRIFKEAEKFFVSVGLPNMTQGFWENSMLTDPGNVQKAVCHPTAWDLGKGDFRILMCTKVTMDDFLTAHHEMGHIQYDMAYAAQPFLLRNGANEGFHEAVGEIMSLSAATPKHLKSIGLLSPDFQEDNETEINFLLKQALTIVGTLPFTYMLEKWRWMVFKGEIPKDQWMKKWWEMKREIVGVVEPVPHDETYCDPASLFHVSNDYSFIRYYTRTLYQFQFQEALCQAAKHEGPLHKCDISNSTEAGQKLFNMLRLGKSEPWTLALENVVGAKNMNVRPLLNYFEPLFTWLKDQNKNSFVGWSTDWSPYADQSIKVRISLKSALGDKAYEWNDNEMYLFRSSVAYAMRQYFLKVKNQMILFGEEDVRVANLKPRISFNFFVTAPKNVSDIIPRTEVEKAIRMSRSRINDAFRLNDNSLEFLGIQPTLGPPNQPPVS

In general, pKd refers to −log10 of the Kd, conventionally taken in molar units. A higher pKd goes with a low Kd. A word on the koff: it is a measure of how fast the partners let go of each other. A high value points to fast dissociation. What is called kon is the second-order rate constant of association. Low values mean slower complex formation, high ones faster complex formation. Turning to “yeast-derived monomeric RBD of SARS-CoV-2 (residues 320-550, C-terminal 6x His-tag) (domain or fragment)”, the pKd was 8.04, the off-rate constant (koff) was 0.00239 s⁻¹ and the on-rate (kon) was 264000 M⁻¹ s⁻¹.
